Results from IntAct's records for PubMed 31515488.

B1: PIH1 domain-containing protein 2 (Homo sapiens), Q8WWB5 (parent)
chain: METSSKGLLTQVTQFWNLLDDLAQSDPEGYEKFIQQQLKEGKQLCAAPEPQLCLQTRILKPKEKILFINLCQWTRIPAPQSTTHPVPLTVGKPEDTTEISDAYTVIDVAYNPDVLHAAEKDQVKKNQLIQMAMKCIEEKFQFTLSHSYHITKFRIKGSIQRMKQNLMGIQTDSIDLREKMRRELTLGQIRSSTMSNPDHFPQLLLPKDQVSGKAVCLIEEISSTEIQVEMKMPAYELKIVHDHSEKPLKIELKVELPGINSVSLCDLSVSEDDLLIEVSEKYRLHLNLPKLIDTEMTTAKFIKEKSTLIITMPLV
B2: Protein FAM9B (Homo sapiens), Q8IZU0 (parent)
chain: MAAWGKKHAGKDPVRDECEERNRFTETREEDVTDEHGEREPFAETDEHTGANTKKPEDTAEDLTAKRKRMKMDKTCSKTKNKSKHALRKKQLKRQKRDYIHSLKLLNVLEEYITDEQKEEEEEEGEEEELIRIFQEQQKKWQQYRSVRRERLKEMKLLRDQFVKALEDFEDLCDRVFSDEDSELDN
partner: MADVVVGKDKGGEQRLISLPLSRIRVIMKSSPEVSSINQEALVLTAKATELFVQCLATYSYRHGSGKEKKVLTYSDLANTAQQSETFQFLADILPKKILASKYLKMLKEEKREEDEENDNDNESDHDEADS
B3: Ubiquitin-conjugating enzyme E2 E3 (Homo sapiens), Q969T4 (parent)
chain: MSSDRQRSDDESPSTSSGSSDADQRDPAAPEPEEQEERKPSATQQKKNTKLSSKTTAKLSTSAKRIQKELAEITLDPPPNCSAGPKGDNIYEWRSTILGPPGSVYEGGVFFLDITFSSDYPFKPPKVTFRTRIYHCNINSQGVICLDILKDNWSPALTISKVLLSICSLLTDCNPADPLVGSIATQYLTNRAEHDRIARQWTKRYAT
B4: Zinc finger protein Aiolos (Homo sapiens), Q9UKT9 (parent)
chain: MEDIQTNAELKSTQEQSVPAESAAVLNDYSLTKSHEMENVDSGEGPANEDEDIGDDSMKVKDEYSERDENVLKSEPMGNAEEPEIPYSYSREYNEYENIKLERHVVSFDSSRPTSGKMNCDVCGLSCISFNVLMVHKRSHTGERPFQCNQCGASFTQKGNLLRHIKLHTGEKPFKCHLCNYACQRRDALTGHLRTHSVEKPYKCEFCGRSYKQRSSLEEHKERCRTFLQSTDPGDTASAEARHIKAEMGSERALVLDRLASNVAKRKSSMPQKFIGEKRHCFDVNYNSSYMYEKESELIQTRMMDQAINNAISYLGAEALRPLVQTPPAPTSEMVPVISSMYPIALTRAEMSNGAPQELEKKSIHLPEKSVPSERGLSPNNSGHDSTDTDSNHEERQNHIYQQNHMVLSRARNGMPLLKEVPRSYELLKPPPICPRDSVKVINKEGEVMDVYRCDHCRVLFLDYVMFTIHMGCHGFRDPFECNMCGYRSHDRYEFSSHIARGEHRALLK
partner: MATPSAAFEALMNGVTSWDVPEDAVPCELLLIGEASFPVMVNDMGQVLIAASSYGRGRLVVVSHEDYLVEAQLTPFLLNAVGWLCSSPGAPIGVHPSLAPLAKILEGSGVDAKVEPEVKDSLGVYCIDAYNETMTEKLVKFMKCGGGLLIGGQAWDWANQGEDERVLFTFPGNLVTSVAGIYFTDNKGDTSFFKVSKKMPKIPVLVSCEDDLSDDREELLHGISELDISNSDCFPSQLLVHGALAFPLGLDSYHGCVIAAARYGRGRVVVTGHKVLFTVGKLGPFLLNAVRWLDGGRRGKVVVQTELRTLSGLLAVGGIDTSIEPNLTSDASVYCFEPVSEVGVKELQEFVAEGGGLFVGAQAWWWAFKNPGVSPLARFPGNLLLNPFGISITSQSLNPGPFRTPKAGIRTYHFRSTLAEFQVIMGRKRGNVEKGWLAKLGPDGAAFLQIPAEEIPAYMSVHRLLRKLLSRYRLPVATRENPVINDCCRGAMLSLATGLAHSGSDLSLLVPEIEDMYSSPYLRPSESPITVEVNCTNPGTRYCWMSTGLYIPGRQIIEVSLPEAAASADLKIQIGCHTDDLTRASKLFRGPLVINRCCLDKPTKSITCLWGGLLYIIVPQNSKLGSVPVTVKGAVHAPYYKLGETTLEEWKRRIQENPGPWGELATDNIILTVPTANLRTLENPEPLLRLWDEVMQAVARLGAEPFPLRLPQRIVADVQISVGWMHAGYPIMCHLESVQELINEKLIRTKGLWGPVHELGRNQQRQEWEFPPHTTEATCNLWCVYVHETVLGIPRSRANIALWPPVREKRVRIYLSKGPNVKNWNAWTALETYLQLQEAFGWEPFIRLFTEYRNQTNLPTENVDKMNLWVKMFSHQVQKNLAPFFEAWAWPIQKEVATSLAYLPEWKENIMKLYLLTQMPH

Variants of: B1
Conditions: with cenpr_human ITGB3BP

Row | Variant | effect of a mutation on the interaction
1 | A117V | with no effect
2 | A102D | with no effect

Variants of: B1
Conditions: with if2b3_human IGF2BP3, O00425
if2b3_human IGF2BP3, O00425, sequence (O00425 whole entry): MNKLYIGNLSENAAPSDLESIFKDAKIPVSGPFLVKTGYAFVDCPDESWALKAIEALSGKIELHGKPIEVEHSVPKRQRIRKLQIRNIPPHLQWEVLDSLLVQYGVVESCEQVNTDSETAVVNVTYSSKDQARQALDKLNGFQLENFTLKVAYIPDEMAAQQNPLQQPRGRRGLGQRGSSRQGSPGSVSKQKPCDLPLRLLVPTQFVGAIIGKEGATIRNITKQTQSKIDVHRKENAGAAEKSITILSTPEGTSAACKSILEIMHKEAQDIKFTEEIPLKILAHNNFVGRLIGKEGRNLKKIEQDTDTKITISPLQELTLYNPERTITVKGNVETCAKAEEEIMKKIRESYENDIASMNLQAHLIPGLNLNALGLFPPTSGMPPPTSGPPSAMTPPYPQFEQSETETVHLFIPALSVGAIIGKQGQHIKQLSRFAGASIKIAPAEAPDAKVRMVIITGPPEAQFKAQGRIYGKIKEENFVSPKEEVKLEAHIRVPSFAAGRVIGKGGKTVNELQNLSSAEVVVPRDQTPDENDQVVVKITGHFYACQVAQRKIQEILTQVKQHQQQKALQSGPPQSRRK

Row | Variant | effect of a mutation on the interaction
3 | A117V | with no effect
4 | A102D | with no effect

Variants of: B1
Conditions: with if4a2_human EIF4A2, Q14240
if4a2_human EIF4A2, Q14240, sequence (Q14240 whole entry): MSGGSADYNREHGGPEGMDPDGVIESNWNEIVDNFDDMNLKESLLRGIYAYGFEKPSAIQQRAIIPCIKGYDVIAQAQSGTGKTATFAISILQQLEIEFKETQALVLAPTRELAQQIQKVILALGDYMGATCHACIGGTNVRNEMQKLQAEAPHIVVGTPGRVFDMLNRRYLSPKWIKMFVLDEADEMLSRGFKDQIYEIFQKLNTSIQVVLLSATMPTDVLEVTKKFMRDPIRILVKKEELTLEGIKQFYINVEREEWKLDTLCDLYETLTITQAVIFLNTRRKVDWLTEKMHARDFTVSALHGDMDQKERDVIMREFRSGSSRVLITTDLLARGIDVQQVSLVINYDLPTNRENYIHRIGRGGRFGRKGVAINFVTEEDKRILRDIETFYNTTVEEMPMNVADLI

Row | Variant | effect of a mutation on the interaction
5 | A117V | with no effect
6 | A102D | with no effect

Variants of: B1
Conditions: with gfap_human GFAP

Row | Variant | effect of a mutation on the interaction
7 | A117V | disrupting interaction strength
8 | A102D | with no effect

Variants of: B2
Conditions: with chrc1_human CHRAC1, Q9NRG0

Row | Variant | effect of a mutation on the interaction
9 | R23H | with no effect

Variants of: B3
Conditions: with rnf5_human RNF5, Q99942
rnf5_human RNF5, Q99942, sequence (Q99942 whole entry): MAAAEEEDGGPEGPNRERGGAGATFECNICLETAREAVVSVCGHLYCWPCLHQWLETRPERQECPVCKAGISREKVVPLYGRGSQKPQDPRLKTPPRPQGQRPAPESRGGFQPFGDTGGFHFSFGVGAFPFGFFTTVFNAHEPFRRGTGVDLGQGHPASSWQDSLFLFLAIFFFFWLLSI

Row | Variant | effect of a mutation on the interaction
10 | S117T | with no effect

Variants of: B4
Conditions: with tcaf1_human TCAF1, Q9Y4C2

Row | Variant | effect of a mutation on the interaction
11 | A24V | with no effect
